{
  "source": "patent US20060014937A1",
  "binders": {"B1": {"name": "humanized antibody YHB1110-13 (antibody, V domains shown)", "VH": "QVQLKQSGPGLVKPSQTLSLTCTVSGFSLSTYGVQWVRQPPGKGLEWLGVIWSGGNTDYNAAFISRVTISKDTSKNQVSLKLSSVTAADTAVYYCARARYFDVWGAGTTVTVSS", "VL": "QAVVTQEPSLTVSPGGTVTLTCRSSTGAITTNNFANWFQQKPGQAFRGLIGDTNNRVPGVPARFSGSLLGNKAALTITGAQPEDEAEYYCALWYNNWVFGGGTKLTVLG"}, "B2": {"name": "humanized antibody YHB1110-15 (antibody, V domains shown)", "VH": "B1 VH", "VL": "B1 VL with L69I, N71D"}},
  "biological_target": "HBV S-surface antigen (International Enzyme Inc., USA) adr type (hepatitis B virus (adr type))",
  "assay": "competition ELISA in solution (Friguet method): antibody pre-mixed with 10^-11 to 10^-6 M antigen, free antibody caught on antigen-coated plate",
  "note": "Numbering of substitutions follows the chain as printed.",
  "data": [
    {"binder": "B1", "values": [
      {"measurement": "Ka", "value": "1e+08", "unit": "M⁻¹"}
    ]},
    {"binder": "B2", "values": [
      {"measurement": "Ka", "value": "7e+07", "unit": "M⁻¹"}
    ]}
  ]
}
